We go through seven molecules from patent publication US20050203007A1 (REGENTS OF THE UNIVERSITY OF MICHIGAN, published 2005).

A word on the Ki: it is a measure of affinity in units of concentration, obtained from inhibition or displacement. The low end stands for a stronger hold on the target, the high end for a looser hold on the target.

Assay [1] has as its target T1, secreted, soluble furin (human, UniProt P09958 108-715, limits assumed).
T1 construct: Secreted, soluble construct; also called human furin
Kind of assay: rapid inhibition assay; listed as potent inhibitor of furin. As for the experimental part: (§1) 5. Rapid protease inhibition assay. Novel eglin variants were diluted 50-fold and incubated with secreted, soluble furin (0.5 nM) for 15 min in 96-well plates. The furin substrate (Boc-Arg-Val-Arg-Arg-MCA) was added, and release of AMC was monitored continuously in a 96-well fluorescence plate reader for 20 min, as described under Example 1. […] The plasmid DNA encoding such eglin c variant inhibitors were isolated and sequenced.

The target in assay [2] is trypsin. Kind of assay: enzyme inhibition.
Sequence of trypsin (P00760 24-246): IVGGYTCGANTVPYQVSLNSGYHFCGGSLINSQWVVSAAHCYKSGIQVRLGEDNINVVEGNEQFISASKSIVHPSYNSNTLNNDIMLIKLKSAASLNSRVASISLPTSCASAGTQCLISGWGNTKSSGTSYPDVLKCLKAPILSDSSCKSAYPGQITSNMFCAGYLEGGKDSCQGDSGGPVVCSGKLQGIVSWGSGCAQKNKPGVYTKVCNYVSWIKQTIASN
Assay [3] deals with T2, subtilisin Carlsberg (UniProt P00780 106-379).
T2 sequence (looked up): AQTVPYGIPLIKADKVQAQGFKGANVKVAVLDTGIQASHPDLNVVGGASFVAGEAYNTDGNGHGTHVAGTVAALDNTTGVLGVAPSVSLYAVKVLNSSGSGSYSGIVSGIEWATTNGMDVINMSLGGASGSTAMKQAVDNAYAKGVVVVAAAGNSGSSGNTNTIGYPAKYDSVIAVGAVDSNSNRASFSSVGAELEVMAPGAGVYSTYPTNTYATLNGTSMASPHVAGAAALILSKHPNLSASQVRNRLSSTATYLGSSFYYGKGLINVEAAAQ
Kind of assay: enzyme inhibition.

Another assay has as its target human plasma kallikrein (human, UniProt P03952 20-638). As to the kind of experiment: enzyme inhibition; weak inhibition.
Another assay has as its target human plasmin (human, UniProt P00747 97-810, limits assumed). As to the kind of experiment: enzyme inhibition; weak inhibition.
The target of assay [4] is T3, secreted, soluble Kex2 (Saccharomyces cerevisiae, UniProt P13134 114-613, limits assumed).
T3 construct: Secreted, soluble construct; also called kexin
T3 sequence (looked up): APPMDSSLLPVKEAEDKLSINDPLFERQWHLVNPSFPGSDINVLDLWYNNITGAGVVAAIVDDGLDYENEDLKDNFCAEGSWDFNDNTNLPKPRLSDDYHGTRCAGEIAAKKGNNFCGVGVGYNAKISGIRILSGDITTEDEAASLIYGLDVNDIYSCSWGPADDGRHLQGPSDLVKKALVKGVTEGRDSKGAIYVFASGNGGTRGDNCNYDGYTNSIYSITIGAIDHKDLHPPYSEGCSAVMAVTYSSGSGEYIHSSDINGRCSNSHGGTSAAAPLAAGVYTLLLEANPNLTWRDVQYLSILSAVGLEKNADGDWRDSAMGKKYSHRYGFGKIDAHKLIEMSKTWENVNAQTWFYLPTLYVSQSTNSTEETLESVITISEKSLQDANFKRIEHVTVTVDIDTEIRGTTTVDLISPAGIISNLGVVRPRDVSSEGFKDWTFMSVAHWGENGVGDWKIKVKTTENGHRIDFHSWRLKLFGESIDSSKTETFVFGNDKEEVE
Kind of assay: equilibrium enzyme inhibition, fluorogenic substrate. As for the experimental part:
(§2) Affinities of eglin variants with secreted, soluble Kex2 (hereafter “Kex2”; Brenner, C. and Fuller, R. S. (1992) Proc. Natl. Acad. Sci. USA 89: 922-926) and secreted, soluble furin (hereafter, “furin”; Bravo, D. A. et al (1994) J. Biol. Chem. 269: 25830-25837; and Komiyama & Fuller (2000) Biochemistry 39: 15156-15165) were measured by incubating variants with the enzymes (˜0.5 to 2.0 nM) for 45 min to 1 h at 21° C. in one of two enzyme assay buffers. For Kex2, the buffer was 200 mM Bistris (pH 7.27) containing 1 mM CaCl₂ and 0.1% Triton X-100; and for furin, the buffer was 20 mM NaMES (pH 7.0) containing 1 mM CaCl₂ and 0.1% Triton X-100 for furin. 100 to 200 μL aliquots of reaction mixtures were transferred into triplicate wells of opaque 96 well plates (Costar), and residual enzyme activity was measured with an fmax fluorescence micro plate reader (Molecular Devices) by monitoring hydrolysis of a fluorogenic substrate Boc-Arg-Val-Arg-Arg-MCA. Data were graphically analyzed (KaleidaGraph) with an equation developed by Green and Work (1953). Site-directed mutagenesis at P2 and P6 of eglin c generated temporary inhibitors (Table 3) and exhausted possibility to improve affinity further with this approach.

Assay [5] concerns the target T1, secreted, soluble furin. The description is as above. Here is the method:
as §2

For assay [6], the target named is T3, secreted, soluble Kex2. Kind of assay: equilibrium enzyme inhibition. Here is the method: (§3) Thus, R1-eglin refers to substitution of Arg at position P1.
(§4) Affinities of eglin variants with secreted, soluble Kex2 (hereafter “Kex2”; Brenner, C. and Fuller, R. S. (1992) Proc. Natl. Acad. Sci. USA 89: 922-926) and secreted, soluble furin (hereafter, “furin”; Bravo, D. A. et al (1994) J. Biol. Chem. 269: 25830-25837; and Komiyama & Fuller (2000) Biochemistry 39: 15156-15165) were measured by incubating variants with the enzymes (˜0.5 to 2.0 nM) for 45 min to 1 h at 21° C. in one of two enzyme assay buffers. For Kex2, the buffer was 200 mM Bistris (pH 7.27) containing 1 mM CaCl₂ and 0.1% Triton X-100; and for furin, the buffer was 20 mM NaMES (pH 7.0) containing 1 mM CaCl₂ and 0.1% Triton X-100 for furin.

The target of assay [7] is T1, secreted, soluble furin. Kind of assay: equilibrium enzyme inhibition. As for the experimental part:
as §3, §4

Assay [8] concerns the target T3, secreted, soluble Kex2. Kind of assay: estimated from koff. Here is the method:
In some aspects of the present invention, biological application of the eglin c variants of the present invention as inhibitors of processing in vivo depends upon the rate of binding to target enzymes, where it is critical. Therefore, the rate of action of eglin variants with Kex2 and furin was examined by incubating 5×10⁻¹⁰ M enzyme with inhibitor at molar ratios of inhibitor to enzyme ranging from 10 to 80. […] The relationship between kobs and inhibitor concentration was linear. The values of kₒₙ were determined from the slope of such curves, and dissociation rate constants (koff) were calculated (koff=kₒₙ/Kₐ). For R4R1-eglin, koff was calculated to be 2×10⁻⁴s⁻¹ for Kex2, and 3×10⁻⁴s⁻¹ for furin. […] Similarly, the t_{1/2} of the complex of M4R1-eglin with Kex2 was estimated to be 3 h. For complex of R4K1-eglin with furin, koff was calculated to be 2×10⁻⁴s⁻¹ implying that the koff and t_{1/2} for this complex are similar to those for the complex of R4R1-eglin with furin.

Assay [9] deals with trypsin. As to the kind of experiment: enzyme inhibition; temporary inhibitor of trypsin.
Assay [10] concerns the target T3, secreted, soluble Kex2. As to the kind of experiment: rapid inhibition assay; listed as potent inhibitor of Kex2.
Assay [11] concerns the target T1, secreted, soluble furin. Kind of assay: rapid furin inhibition assay; table lists substitutions with equal or enhanced inhibition of furin relative to the template. Here is the method:
3. Rapid screening of libraries. Libraries were introduced into E. coli BL21 (DE3) cells and individual, cloned transformants were grown by shaking at 37° C. in 200 μl LB containing […] kanamycin in 96-well, 0.45 μm GHP membrane filter plates (Gelman) (FIG. 2). When O.D. 600 values reached 0.4, 60 μl of culture were transferred to secondary 96-well plates (Falcon), adjusted to 10% glycerol, and stored at −80° C. These frozen stocks served as master copies of the libraries. IPTG was added to the cultures to a final concentration of 1 mM, and the cultures were allowed to express eglin c variants for one hour in the filter plate. Expressed eglin c variants were extracted from the cells with 50 mM Tris-HCl pH 8.0 containing 2 mM EDTA following freezing and thawing. These extracts were collected as filtrates by centrifugation of the filter plate above a second plate. The filtrates, representing partially purified eglin c variants, were analyzed using a rapid fluorescence-based assay for processing enzyme inhibition as described below in Section 5. […] Frozen cells were cultured in 50 to 100 ml culture volumes, and DNA maxipreps were performed; the DNA preparations were then sequenced by automated DNA sequencing. Selected variants were expressed and purified on a larger scale, and affinities for furin or Kex2 were examined quantitatively (see below).
as §1

For a further assay, the target named is chymotrypsin. As to the kind of experiment: enzyme inhibition, standard assay conditions.
Assay [12] deals with T2, subtilisin Carlsberg. As to the kind of experiment: enzyme inhibition, standard assay conditions.
Assay [13] addresses T4, human neutrophil elastase (human, UniProt P08246 30-247).
T4 sequence (looked up): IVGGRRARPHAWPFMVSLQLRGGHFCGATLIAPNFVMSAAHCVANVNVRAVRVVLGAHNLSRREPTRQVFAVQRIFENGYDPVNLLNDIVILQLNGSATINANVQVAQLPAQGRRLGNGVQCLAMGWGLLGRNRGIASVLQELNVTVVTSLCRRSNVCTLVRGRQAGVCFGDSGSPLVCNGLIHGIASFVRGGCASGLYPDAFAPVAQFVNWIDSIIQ
Kind of assay: enzyme inhibition, standard assay conditions.

T1 sequence (P09958 108-715 limits assumed): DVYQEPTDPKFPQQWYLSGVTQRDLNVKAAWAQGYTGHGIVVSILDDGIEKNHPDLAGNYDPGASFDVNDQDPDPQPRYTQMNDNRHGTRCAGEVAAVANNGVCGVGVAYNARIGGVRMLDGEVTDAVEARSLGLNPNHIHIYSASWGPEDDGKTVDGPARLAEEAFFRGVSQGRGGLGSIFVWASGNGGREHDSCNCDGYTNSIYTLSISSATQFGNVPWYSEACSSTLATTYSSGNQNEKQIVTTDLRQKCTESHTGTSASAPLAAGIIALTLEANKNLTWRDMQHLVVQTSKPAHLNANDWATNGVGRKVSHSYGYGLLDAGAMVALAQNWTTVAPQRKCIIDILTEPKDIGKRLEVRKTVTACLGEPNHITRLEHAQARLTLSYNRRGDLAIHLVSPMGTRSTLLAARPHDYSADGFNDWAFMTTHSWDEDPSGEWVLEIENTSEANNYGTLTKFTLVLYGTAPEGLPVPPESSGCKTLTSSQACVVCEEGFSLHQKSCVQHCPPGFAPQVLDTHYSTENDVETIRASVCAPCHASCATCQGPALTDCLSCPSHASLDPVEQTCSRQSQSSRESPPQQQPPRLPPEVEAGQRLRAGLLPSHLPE
Sequence of human plasmin (P00747 97-810 limits assumed): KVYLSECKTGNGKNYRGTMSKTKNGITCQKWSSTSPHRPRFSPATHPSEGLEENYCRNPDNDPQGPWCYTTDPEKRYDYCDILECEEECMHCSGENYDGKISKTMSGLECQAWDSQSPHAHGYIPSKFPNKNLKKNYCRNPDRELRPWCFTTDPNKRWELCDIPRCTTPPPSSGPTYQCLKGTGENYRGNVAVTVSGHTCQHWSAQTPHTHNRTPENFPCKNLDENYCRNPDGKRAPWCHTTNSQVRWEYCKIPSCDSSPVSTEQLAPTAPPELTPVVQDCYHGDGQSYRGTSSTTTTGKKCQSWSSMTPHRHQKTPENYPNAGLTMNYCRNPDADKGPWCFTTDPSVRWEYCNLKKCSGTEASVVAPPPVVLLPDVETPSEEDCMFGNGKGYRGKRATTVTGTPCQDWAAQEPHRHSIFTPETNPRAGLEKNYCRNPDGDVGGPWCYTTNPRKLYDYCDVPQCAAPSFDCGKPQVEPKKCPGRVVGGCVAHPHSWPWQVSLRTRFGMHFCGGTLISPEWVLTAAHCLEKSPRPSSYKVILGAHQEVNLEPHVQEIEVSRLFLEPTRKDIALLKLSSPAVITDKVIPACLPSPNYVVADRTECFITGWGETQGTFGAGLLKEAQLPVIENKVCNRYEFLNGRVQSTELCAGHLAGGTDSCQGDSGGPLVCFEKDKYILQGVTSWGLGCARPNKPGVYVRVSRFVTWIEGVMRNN
Sequence of human plasma kallikrein (P03952 20-638 limits assumed): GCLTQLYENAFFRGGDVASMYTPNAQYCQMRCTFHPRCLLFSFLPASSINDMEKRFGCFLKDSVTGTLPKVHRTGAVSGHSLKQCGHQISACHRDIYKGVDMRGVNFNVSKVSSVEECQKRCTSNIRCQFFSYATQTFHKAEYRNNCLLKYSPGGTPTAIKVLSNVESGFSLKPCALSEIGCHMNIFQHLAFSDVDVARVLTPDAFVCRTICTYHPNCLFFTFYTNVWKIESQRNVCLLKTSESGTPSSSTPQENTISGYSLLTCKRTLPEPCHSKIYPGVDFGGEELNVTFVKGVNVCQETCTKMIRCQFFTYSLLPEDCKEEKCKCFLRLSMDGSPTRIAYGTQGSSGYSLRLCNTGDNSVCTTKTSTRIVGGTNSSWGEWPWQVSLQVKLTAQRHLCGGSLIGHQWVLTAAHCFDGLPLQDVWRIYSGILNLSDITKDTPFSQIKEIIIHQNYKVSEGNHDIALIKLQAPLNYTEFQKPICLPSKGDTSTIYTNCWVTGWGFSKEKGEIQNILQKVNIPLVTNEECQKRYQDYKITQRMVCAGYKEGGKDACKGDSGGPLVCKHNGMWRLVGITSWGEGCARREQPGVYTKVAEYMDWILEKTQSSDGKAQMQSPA

B1: Gly49-R4R1-eglin (Tyr49 to Gly) (designed binder)
chain: SMGSELKSFPEVVGKTVDQAREYFTLHYPQYDVYFLPEGSRVTRDLRGNRVRVFYNPGTNVVNHVPHVG
notes: tested as partially purified extract
Turning to B1, in the assay with secreted, soluble furin [1], the binding result was “binds”.

B2: R1-eglin (designed binder)
chain: SMGSELKSFPEVVGKTVDQAREYFTLHYPQYDVYFLPEGSPVTRDLRYNRVRVFYNPGTNVVNHVPHVG
notes: also called Arg45-eglin c
For the molecule B2, the Ka was 1.8e+10 M⁻¹ with trypsin [2], 1e+10 M⁻¹ with subtilisin Carlsberg [3], roughly 1e+06 M⁻¹ in the assay with human plasma kallikrein and roughly 1e+06 M⁻¹ with human plasmin. Also, the Ki was 0.03 µM with secreted, soluble Kex2 [4] and 53 µM with secreted, soluble furin [5]. Moreover, the “fold increase in affinity relative to L1-eglin” value in the assay with secreted, soluble Kex2 [6] was found to be 10000 fold; with secreted, soluble furin [7] it was 2.5 fold. For the same molecule, the “fold enhancement of affinity relative to L1-eglin” value with secreted, soluble furin [7] was 2 to 3 fold.

B3: Pro38Leu Tyr49Cys R4R1-eglin (designed binder)
chain: SMGSELKSFPEVVGKTVDQAREYFTLHYPQYDVYFLLEGSRVTRDLRCNRVRVFYNPGTNVVNHVPHVG
notes: as for B1
Turning to B3, in the assay with secreted, soluble furin [1], the binding result was “binds”.

B4: M4R1-eglin (designed binder)
chain: SMGSELKSFPEVVGKTVDQAREYFTLHYPQYDVYFLPEGSMVTRDLRYNRVRVFYNPGTNVVNHVPHVG
notes: N-terminal Met removed
Take B4: the results for the Ka with subtilisin Carlsberg [3] and with trypsin [9] were 6.6e+10 M⁻¹ and 4.4e+10 M⁻¹, respectively. Moreover, in the assay with secreted, soluble Kex2 [8], the “half-life (t1/2) of the complex” value was 3 h. Moreover, the Ki with secreted, soluble Kex2 [4] stood at 0.00034 µM; with secreted, soluble furin [5] it was 3.6 µM. For the same molecule, the “fold higher affinity of Kex2 than of furin” value with secreted, soluble Kex2 [6] was roughly 10000 fold. The “fold increase in Ka relative to R1-eglin” value with secreted, soluble Kex2 [6] was 88 fold. For the same molecule, the “fold increase in affinity relative to L1-eglin” value with secreted, soluble Kex2 [6] was 1.5e+06 fold; with secreted, soluble furin [7], 33 fold. In addition, the “fold increase in affinity relative to R1-eglin” value with secreted, soluble furin [7] is 15 fold.

B5: Tyr49Cys-R4R1-eglin (designed binder)
chain: SMGSELKSFPEVVGKTVDQAREYFTLHYPQYDVYFLPEGSRVTRDLRCNRVRVFYNPGTNVVNHVPHVG
notes: N-terminal Met removed; also called the Cys variant
Consider B5, for which the binding result is listed as “binds” with secreted, soluble Kex2 [10] and “binds” with secreted, soluble furin [11].

B6: L1-eglin (other)
chain: SMGSELKSFPEVVGKTVDQAREYFTLHYPQYDVYFLPEGSPVTLDLRYNRVRVFYNPGTNVVNHVPHVG
notes: Recombinant eglin with the natural reactive site loop; also called wild type eglin; wild type eglin (Leu45)
For B6, the Ka with chymotrypsin turned out to be 1.1e+10 M⁻¹; with subtilisin Carlsberg [12] it was 6.7e+10 M⁻¹; in assay [13], 4.5e+10 M⁻¹. Besides, the Ki in the assay with secreted, soluble Kex2 [4] was roughly 500 µM; in the assay with secreted, soluble furin [5] it was 120 µM.

B7: Val49-R4R1-eglin (Tyr49 to Val) (designed binder)
chain: SMGSELKSFPEVVGKTVDQAREYFTLHYPQYDVYFLPEGSRVTRDLRVNRVRVFYNPGTNVVNHVPHVG
notes: as for B1
Take B7: the binding result with secreted, soluble Kex2 [10] is on record as “binds”.
